# Test results reported in the supplement of paper PMC9112550, “Optimization of the antimicrobial peptide Bac7 by deep mutational scanning” (BMC Biology, 2022).
# Tested on: Escherichia coli TOP10
# Assay: shrunken log2 fold change of peptide-encoding DNA abundance (4.5 h post-induction vs induction); higher = less antimicrobial activity (less host growth inhibition)
# Conditions: time post-induction: 4.5 h; library: site-saturation at positions 5, 18, 19, 20
# 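Note: peptides expressed intracellularly from a pBAD plasmid library in pooled LB shake-flask culture, induced with 0.3% L-arabinose, DNA abundance read by NGS, three biological replicates, DESeq2 with apeglm shrinkage.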
row,Sequence,shrunken log2 fold change
1,RRIRQRPPRLPRPRPRPDYDPRP,0.003
2,RRIRTRPPRLPRPRPRPKIHPRP,-0.427
3,RRIRPRPPRLPRPRPRPVHLPRP,0.179
4,RRIRKRPPRLPRPRPRPQTVPRP,0.0918
5,RRIRCRPPRLPRPRPRPPYSPRP,-0.798
6,RRIRERPPRLPRPRPRPESFPRP,0.0447
7,RRIRRRPPRLPRPRPRPRSCPRP,0.182
8,RRIRLRPPRLPRPRPRPEMIPRP,0.0183
9,RRIRFRPPRLPRPRPRPVDGPRP,0.148
10,RRIRGRPPRLPRPRPRPIQTPRP,0.0411
11,RRIRKRPPRLPRPRPRPWFDPRP,-0.0566
12,RRIRERPPRLPRPRPRPCYAPRP,-0.383
13,RRIRRRPPRLPRPRPRPLWTPRP,0.129
14,RRIRWRPPRLPRPRPRPGAMPRP,0.524
15,RRIRHRPPRLPRPRPRPVEPPRP,0.109
16,RRIRNRPPRLPRPRPRPNNNPRP,-0.867
17,RRIRHRPPRLPRPRPRPVRGPRP,0.328
18,RRIRCRPPRLPRPRPRPQVYPRP,-0.313
19,RRIRMRPPRLPRPRPRPIAEPRP,3.46
20,RRIRHRPPRLPRPRPRPVRIPRP,0.0159
21,RRIRARPPRLPRPRPRPVCAPRP,0.571
22,RRIRWRPPRLPRPRPRPTLWPRP,0.611

row,Sequence,shrunken log2 fold change
1,RRIRHRPPRLPRPRPRPHADPRP,-0.208
2,RRIRTRPPRLPRPRPRPWDEPRP,-0.167
3,RRIRERPPRLPRPRPRPYFWPRP,-0.143
4,RRIRHRPPRLPRPRPRPSYHPRP,-1.11
5,RRIRCRPPRLPRPRPRPMCWPRP,0.0297
6,RRIRFRPPRLPRPRPRPEYDPRP,0.0271
7,RRIRYRPPRLPRPRPRPIFLPRP,-0.246
8,RRIRLRPPRLPRPRPRPMKYPRP,-0.236
9,RRIRWRPPRLPRPRPRPWRKPRP,-0.139
10,RRIRVRPPRLPRPRPRPMTPPRP,0.452
11,RRIRSRPPRLPRPRPRPFEHPRP,-0.0715
12,RRIRRRPPRLPRPRPRPSIVPRP,0.26
13,RRIRWRPPRLPRPRPRPQCNPRP,-0.0929
14,RRIRLRPPRLPRPRPRPKCCPRP,-0.166
15,RRIRERPPRLPRPRPRPYFFPRP,-0.587
16,RRIRVRPPRLPRPRPRPCVAPRP,0.159
17,RRIRNRPPRLPRPRPRPWLTPRP,-0.0905
18,RRIRMRPPRLPRPRPRPKQIPRP,0.371
19,RRIRCRPPRLPRPRPRPFYYPRP,-0.97
20,RRIRYRPPRLPRPRPRPAMSPRP,-0.0191
21,RRIRIRPPRLPRPRPRPNFDPRP,0.235
22,RRIRFRPPRLPRPRPRPWKYPRP,-0.411

row,Sequence,shrunken log2 fold change
1,RRIRNRPPRLPRPRPRPQAVPRP,-0.0343
2,RRIRQRPPRLPRPRPRPVIYPRP,-0.0661
3,RRIRMRPPRLPRPRPRPEYMPRP,-0.00213
4,RRIRNRPPRLPRPRPRPNTMPRP,0.402
5,RRIRHRPPRLPRPRPRPRDHPRP,0.175
6,RRIRDRPPRLPRPRPRPNHAPRP,-0.31
7,RRIRGRPPRLPRPRPRPWECPRP,-0.00149
8,RRIRRRPPRLPRPRPRPQGSPRP,0.0234
9,RRIRARPPRLPRPRPRPLNIPRP,0.0473
10,RRIRQRPPRLPRPRPRPIPGPRP,-0.309
11,RRIRSRPPRLPRPRPRPMAFPRP,-0.0285
12,RRIRRRPPRLPRPRPRPINDPRP,-0.219
13,RRIRMRPPRLPRPRPRPVMPPRP,-0.0271
14,RRIRARPPRLPRPRPRPVCRPRP,0.505
15,RRIRERPPRLPRPRPRPEEAPRP,0.353
16,RRIRNRPPRLPRPRPRPIFWPRP,-0.162
17,RRIRSRPPRLPRPRPRPNHCPRP,-0.415
18,RRIRGRPPRLPRPRPRPLLKPRP,1.39
19,RRIRCRPPRLPRPRPRPYQMPRP,-1.3
20,RRIRDRPPRLPRPRPRPFVIPRP,0.129
21,RRIRIRPPRLPRPRPRPWIWPRP,-0.109
22,RRIRGRPPRLPRPRPRPVYCPRP,0.0683

row,Sequence,shrunken log2 fold change
1,RRIRERPPRLPRPRPRPQLVPRP,0.0441
2,RRIRFRPPRLPRPRPRPSQNPRP,-0.22
3,RRIRMRPPRLPRPRPRPHIEPRP,-0.0375
4,RRIRWRPPRLPRPRPRPDLVPRP,0.0575
5,RRIRPRPPRLPRPRPRPDPTPRP,0.166
6,RRIRHRPPRLPRPRPRPDCDPRP,-0.243
7,RRIRNRPPRLPRPRPRPSGEPRP,0.155
8,RRIRHRPPRLPRPRPRPSVKPRP,-0.364
9,RRIRNRPPRLPRPRPRPGTCPRP,-0.0314
10,RRIRLRPPRLPRPRPRPTLSPRP,-0.0659
11,RRIRHRPPRLPRPRPRPAMFPRP,0.0207
12,RRIRVRPPRLPRPRPRPHHQPRP,-0.427
13,RRIRRRPPRLPRPRPRPPSRPRP,0.446
14,RRIRPRPPRLPRPRPRPLQHPRP,-0.17
15,RRIRNRPPRLPRPRPRPYPSPRP,0.0309
16,RRIRCRPPRLPRPRPRPPACPRP,0.479
17,RRIRVRPPRLPRPRPRPVDMPRP,0.00782
18,RRIRLRPPRLPRPRPRPLDKPRP,-0.122
19,RRIRQRPPRLPRPRPRPDFIPRP,-0.345
20,RRIRIRPPRLPRPRPRPNGVPRP,-0.37
21,RRIRPRPPRLPRPRPRPCIKPRP,-0.441
22,RRIRRRPPRLPRPRPRPHLQPRP,-0.0319

row,Sequence,shrunken log2 fold change
1,RRIRDRPPRLPRPRPRPREPPRP,0.112
2,RRIRQRPPRLPRPRPRPQQSPRP,-0.0224
3,RRIRTRPPRLPRPRPRPGNFPRP,-0.0548
4,RRIRERPPRLPRPRPRPTNAPRP,-0.0659
5,RRIRRRPPRLPRPRPRPDGGPRP,0.149
6,RRIRCRPPRLPRPRPRPDQEPRP,0.0455
7,RRIRFRPPRLPRPRPRPLRPPRP,0.932
8,RRIRRRPPRLPRPRPRPRKSPRP,0.339
9,RRIRPRPPRLPRPRPRPNWPPRP,0.0357
10,RRIRIRPPRLPRPRPRPIHCPRP,-0.00133
11,RRIRIRPPRLPRPRPRPDEHPRP,-0.272
12,RRIRFRPPRLPRPRPRPEKKPRP,0.0265
13,RRIRARPPRLPRPRPRPDAPPRP,0.942
14,RRIRMRPPRLPRPRPRPDPFPRP,0.0255
15,RRIRHRPPRLPRPRPRPLQLPRP,-0.213
16,RRIRSRPPRLPRPRPRPIAQPRP,-0.0267
17,RRIRCRPPRLPRPRPRPQHKPRP,-0.543
18,RRIRDRPPRLPRPRPRPNWCPRP,0.0171
19,RRIRNRPPRLPRPRPRPNFFPRP,0.0771
20,RRIRLRPPRLPRPRPRPGSPPRP,0.475
21,RRIRPRPPRLPRPRPRPCPMPRP,-0.156
